Here are results for five proteins from article PMC9881219, “The NTPase activity of the double FYVE domain–containing protein 1 regulates lipid droplet metabolism” (The Journal of Biological Chemistry, 2022).

Data set [1] deals with the molecule itself. Briefly: SEC; MBP-DFCP1 (112-415) constructs on HiLoad 26/600 Superdex 200 pg; 25 mM Tris pH 8.0, 150 mM NaCl, 1 mM MgCl2, 1 mM DTT; monomer and dimer peaks. For orientation: In gel filtration, larger molecules generally elute earlier.
Data set [2] deals with the molecule itself. Briefly: SEC; full-length FLAG-DFCP1 on Superose 6; 25 mM Tris pH 8, 150 mM NaCl, 1 mM DTT, 1 mM MgCl2; monomer and dimer peaks.

B1: MBP-DFCP1 (112-415), WT NTPase domain of mouse DFCP1 (domain or fragment, UniProt Q810J8 112-415, looked up)
chain: NKRRHPITVYLVSKVQESLEGEEMDEETKRKKMTERVVSFLLVDENEEIQVTNEEDFIRKLDCKPDQHLKVVSIFGNTGDGKSHTLNHTFFYGREVFKTSPAQESCTVGVWAAYDPVHKVAVIDTEGLLGATVNLSQRTRLLLKVLAISDLVIYRTHADRLHNDLFKFLGDASEAYLKHFTKELKATTARCGLDVPLSTLGPAVIIFHETVHTQLLGSDHPSEAPEKLIQDRFRKLGRFPEAFSSIHYKGTRTYNPPTDFSGLRRALEQLLENNTTRSPRHPGVIFKALKALSDRFSGEIPDDQ
notes: Mouse DFCP1, UniProt Q810J8, residues 112-415 (NTPase domain, 98.8% identical to human DFCP1), in pMal-c2e; MBP was removed with TEV protease only after the SEC step, for the nucleotide hydrolysis assays; also called WT (112-415); DFCP1 NTPase domain; source: E. coli Rosetta (DE3), purified (amylose resin, Superdex 200 SEC); not shown: MBP, N-terminal, kept
In the case of B1, the binding result in data set [1] is “binds”.

B2: MBP-DFCP1 (112-415) K193A/R266Q (domain or fragment, mouse, UniProt Q810J8 112-415, looked up)
chain: NKRRHPITVYLVSKVQESLEGEEMDEETKRKKMTERVVSFLLVDENEEIQVTNEEDFIRKLDCKPDQHLKVVSIFGNTGDGASHTLNHTFFYGREVFKTSPAQESCTVGVWAAYDPVHKVAVIDTEGLLGATVNLSQRTRLLLKVLAISDLVIYQTHADRLHNDLFKFLGDASEAYLKHFTKELKATTARCGLDVPLSTLGPAVIIFHETVHTQLLGSDHPSEAPEKLIQDRFRKLGRFPEAFSSIHYKGTRTYNPPTDFSGLRRALEQLLENNTTRSPRHPGVIFKALKALSDRFSGEIPDDQ
notes: Mouse DFCP1, UniProt Q810J8, residues 112-415 (NTPase domain) with both K193A and R266Q, in pMal-c2e; also called KARQ; KA/RQ; source: E. coli Rosetta (DE3), purified (amylose resin, Superdex 200 SEC); not shown: MBP, N-terminal, kept
Regarding B2, the binding result in data set [1] is “binds”.

B3: MBP-DFCP1 (112-415) R266Q (domain or fragment, mouse, UniProt Q810J8 112-415, looked up)
chain: NKRRHPITVYLVSKVQESLEGEEMDEETKRKKMTERVVSFLLVDENEEIQVTNEEDFIRKLDCKPDQHLKVVSIFGNTGDGKSHTLNHTFFYGREVFKTSPAQESCTVGVWAAYDPVHKVAVIDTEGLLGATVNLSQRTRLLLKVLAISDLVIYQTHADRLHNDLFKFLGDASEAYLKHFTKELKATTARCGLDVPLSTLGPAVIIFHETVHTQLLGSDHPSEAPEKLIQDRFRKLGRFPEAFSSIHYKGTRTYNPPTDFSGLRRALEQLLENNTTRSPRHPGVIFKALKALSDRFSGEIPDDQ
notes: Mouse DFCP1, UniProt Q810J8, residues 112-415 (NTPase domain) with R266Q, in pMal-c2e; R266Q is a cancer-related mutation found in human patients (endometrial and colorectal cancers); Here it was introduced into the mouse NTPase domain by mutagenesis; also called RQ; RQm/RQd (monomeric/dimeric states); source: E. coli Rosetta (DE3), purified (amylose resin, Superdex 200 SEC); not shown: MBP, …
Take B3: the binding result in data set [1] is recorded as “binds”.

B4: MBP-DFCP1 (112-415) K193A (domain or fragment, mouse, UniProt Q810J8 112-415, looked up)
chain: NKRRHPITVYLVSKVQESLEGEEMDEETKRKKMTERVVSFLLVDENEEIQVTNEEDFIRKLDCKPDQHLKVVSIFGNTGDGASHTLNHTFFYGREVFKTSPAQESCTVGVWAAYDPVHKVAVIDTEGLLGATVNLSQRTRLLLKVLAISDLVIYRTHADRLHNDLFKFLGDASEAYLKHFTKELKATTARCGLDVPLSTLGPAVIIFHETVHTQLLGSDHPSEAPEKLIQDRFRKLGRFPEAFSSIHYKGTRTYNPPTDFSGLRRALEQLLENNTTRSPRHPGVIFKALKALSDRFSGEIPDDQ
notes: Mouse DFCP1, UniProt Q810J8, residues 112-415 (NTPase domain) with K193A, in pMal-c2e; also called KA; K193A NTPase domain; source: E. coli Rosetta (DE3), purified (amylose resin, Superdex 200 SEC); not shown: MBP, N-terminal, kept
On to B4, for which the binding result in data set [1] is “binds”.

B5: full-length FLAG-DFCP1 (human double FYVE domain-containing protein 1) (natural protein, UniProt Q9HBF4 1-777, looked up)
chain: MSAQTSPAEKGLNPGLMCQESYACSGTDEAIFECDECCSLQCLRCEEELHRQERLRNHERIRLKPGHVPYCDLCKGLSGHLPGVRQRAIVRCQTCKINLCLECQKRTHSGGNKRRHPVTVYNVSNLQESLEAEEMDEETKRKKMTEKVVSFLLVDENEEIQVTNEEDFIRKLDCKPDQHLKVVSIFGNTGDGKSHTLNHTFFYGREVFKTSPTQESCTVGVWAAYDPVHKVAVIDTEGLLGATVNLSQRTRLLLKVLAISDLVIYRTHADRLHNDLFKFLGDASEAYLKHFTKELKATTARCGLDVPLSTLGPAVIIFHETVHTQLLGSDHPSEVPEKLIQDRFRKLGRFPEAFSSIHYKGTRTYNPPTDFSGLRRALEQLLENNTTRSPRHPGVIFKALKALSDRFSGEIPDDQMAHSSFFPDEYFTCSSLCLSCGVGCKKSMNHGKEGVPHEAKSRCRYSHQYDNRVYTCKACYERGEEVSVVPKTSASTDSPWMGLAKYAWSGYVIECPNCGVVYRSRQYWFGNQDPVDTVVRTEIVHVWPGTDGFLKDNNNAAQRLLDGMNFMAQSVSELSLGPTKAVTSWLTDQIAPAYWRPNSQILSCNKCATSFKDNDTKHHCRACGEGFCDSCSSKTRPVPERGWGPAPVRVCDNCYEARNVQLAVTEAQVDDEGGTLIARKVGEAVQNTLGAVVTAIDIPLGLVKDAARPAYWVPDHEILHCHNCRKEFSIKLSKHHCRACGQGFCDECSHDRRAVPSRGWDHPVRVCFNCNKKPGDL
notes: Human DFCP1 (ZFYVE1), UniProt Q9HBF4, full length; A TEV site lies between FLAG and DFCP1; no cleavage is described for this protein; The domain diagram gives 1-777 for the full-length protein; also called FL DFCP1; FL hsDFCP1; not shown: FLAG, N-terminal, kept
As for B5, in data set [2], the binding result is listed as “binds”.
